# ± gives the half width of the 95% confidence interval.
# Experiment: folding stability dG unfold from trypsin proteolysis; higher = more stable
# Procedure, shortened: (§1)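 Unfolding free energy was derived, per protease or combined, by relating Bayesian-fitted K50 values from sequencing counts to a sequence-predicted unfolded-state K50 and a shared folded-state K50. The underlying digests exposed cysteine-free mini-proteins under 80 residues, in a PA-tagged cDNA display construct, to trypsin and chymotrypsin at 11 threefold-diluted concentrations and to a no-protease condition. A filter kept only designs with AlphaFold2 dimer inter-PAE above 15.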
row,Sequence,folding stability dG unfold [kJ/mol]
1,SEEEYLVIEVEFEVENPEEAREFAERLARELPLDEIESLEVEVEPREVFVEGEPVGPVYRFRVRAVVRPRSA [r9_605_TrMRF],11 ± 0.289
2,SAGGMKPGEKVLVKITLKKEVFKNENGEEVKVEEKEILIELEVDSLEEALEALKKLLPPGAEIEVLPSAGGS [r16_282_TrROS_Hall],14.7 ± 0.544
3,SATIEIPIKVNDRKFRISIERMPDGWIKIQIRDPNMPKDAVKDALREILGPGWKIDTDPETNTIYIPFKSAG [r14_370_TrROS],10.1 ± 0.255
4,SAGGSAGGSVVPVKAVFKLPDGDEVEGLALVDNRPDGSLVVLFQLPGTGETVGSATAELLKVEGSAGGSAGG [r6_254_TrMRF],2.19 ± 0.134
5,SKEKVKVEIKLTVTKVFPPEELEKDPKTGKYRNKDTGKWFEPPKVVVKELTLTIEMSKEEVEKLLKELLKSA [r9_165_TrROS_Hall],6.36 ± 0.247
6,SKKKKTIVIELTKDELKELLKKLKVEEGDEVEIFVRNKDGSIYKLTIKNGKITKIEPFKGVPNKVVIVIKSA [r9_849_TrROS_Hall],7.72 ± 0.28
7,SAGGSAGGSMVEITFPPDLSEEEAEALAKELEEKYNKKVKITKVPPEIPVPLPQYDPTNWVEVSAGGSAGGS [r12_159_JUSTAS],-0.21 ± 0.251
8,SAGGSAGGSAGGTVTFFEENEFVIDVPDPLTGRPIRIEVPGDPNKPEEIEARAEELRLSSAGGSAGGSAGGS [r10_379_JUSTAS],0.783 ± 0.276
9,SAGDALKDIFPGLEIEPHEKPVKVPPGKPVEFAFIIRMPDGEIMIFDMHFNPGGEVRVRVLTIKLPEKSAGG [r19_125_TrROS],12 ± 0.669
10,SAGGSAGGPSPNQPERQQVQVEAKIRFPDPNGKEWTIEITAYGSVGDARDAARSLAREIKNGKISAGGSAGG [r6_944_TrROS],-2.07 ± 0.711
11,SAGGKTITLPNGITITVNEDGTVTVTVTVDGKTLTVTVKVDSLEEALAAILEELRRLLKPPEVTVVKPSAGG [r13_896_TrROS_Hall],10.5 ± 0.406
12,SEVEVTVTVTLTRRLPDGREREVTVTLTLRLEFDPELSEEELESPELRKRLEELRREALERARRLAEELASA [r9_237_TrROS_Hall],19.4 ± 0.753
13,SAGGSAGGSITVEVEVEIVDEVEDPNTQGYRPVRVSRIPITIPVPESWSEEDIEAAVKEAIEKASAGGSAGG [r6_494_JUSTAS],4.62 ± 0.197
14,SAGFSIVEVEPDEDTYTITIEYTLPNGTVKTKDLPLKAKNPVLLEISENEITIYLPDTNEVVTLPVSLISAG [r14_947_JUSTAS],8.02 ± 0.364
15,SAGGMPKLTVTITFEPPDGSTTTTRDFTSVEEAIEALRAVPDIPVEPLEDDVIRARRPDSETTVTIVESAGG [r13_143_JUSTAS],0.805 ± 0.293
16,SAGGSAGGSMPKKTYEFEIEYEDPEEAVEKAIREFEEETGEKIEEVEVEYDPEKGIVKITLVKSAGGSAGGS [r12_265_JUSTAS],3.85 ± 0.276
17,SAGGSAGGSDDMIPIPFKIKLKDPNGKPHEFPVTIWINPEDGMIMIRYPNQPIMIDPDKIEIESAGGSAGGS [r20_48_TrROS],4.08 ± 0.372
18,SAGGSAGGGGMMKTITIPLEELKAKLAKETGKPLTIEEIKEALKKEGIKLLSVDKEKGTITISESAGGSAGG [r6_767_JUSTAS],10 ± 0.418
19,SGSTHTVRPPGGLTLTFTFSTDGTTEEAAQALKEALAAALPPDVTVTFDRIDPDKPVTPDEAATVDATVVSA [r9_178_JUSTAS],2.02 ± 0.23
20,SAGGEIKPGQTVRIRITVYNLETGEEKTIEVEVPAGKTLEEVLAELFDNLSEEERKNLVVRIEIEPVSAGGS [r16_321_TrROS_Hall],18.3 ± 0.628
21,SAGGSAGGSAGGMIKTKDGKVLEFKSLEEALAALKELGVDEVEIEELEPEGVVKVKVKPSAGGSAGGSAGGS [r10_1191_TrROS_Hall],1.26 ± 0.126

row,Sequence,folding stability dG unfold [kJ/mol]
1,SAGMVVTINFSIPETGETITITIPVPEDDPVVKALGAPSAEDIAAYLAPQLKEKGINVQNPTVTVTEPSSAG [r5_722_JUSTAS],1 ± 0.18
2,SAGGSAGGMARVLRVEPAEGDDTFYVEVEFYDPATGEVTLGRFRIPADRPDLATNIPADSWVVLSAGGSAGG [r6_978_TrMRF],2.76 ± 0.167
3,SAGGSAGGSAGKIEAFPGKNTVLLKISIPRRDPNSDSIYTLHAVIPATPEQAKKFLELGISAGGSAGGSAGG [r11_389_TrMRF],3.72 ± 0.172
4,SAGGSAGGSAPNYIKIRIKFQSDGKRHSMEIFIPDNPKKAKQIAKEMANMGGIEDVEVERYSAGGSAGGSAG [r3_310_TrROS],2.15 ± 0.544
5,KAYKVVFPLPKEGRTVVVYVPEEHGKPLTEEEIAALLREAYPDKEPADLPAEELAKILAAKEGVVRVEVEGS [r1_463_TrMRF],3.62 ± 0.372
6,SAGGKMKLEVEILENEGTILVRFHFGDKVLEIPLPFPNLTPEDVKEAAEEIAKKLKEEYNIEEVEIESAGGS [r16_249_TrMRF],9.76 ± 0.544
7,SAGMVVTERTEPATGRPYTVTTEEDGSVTGSYPATGDTRSTTLNDRTTFSLPTTSPEVAAAQVEAALAASAG [r14_561_JUSTAS],-0.578 ± 0.314
8,SAGGGPAKEVPILALIKARNPETGEEYELPIVITANSKEDVEAAKGLVDTLAEALRELGFTEVEVEIGSAGG [r13_360_TrMRF],12.4 ± 0.289
9,SAGDMIKIPFNFKDPNGAKPKELEVMISPDPGVITAMFKYKHNNEPKYYMISIPIDPGNGKIEIEIQPMSAG [r5_136_TrROS],5.02 ± 0.243
10,SAGGKPLLIKVKVRLKNGKELTITVREGESLEEILARARELLGKPIEVEKIEVIPLPPKKEVKKKEKSAGGS [r8_285_TrROS_Hall],6.21 ± 0.0795
11,SAGGSAGGSAMPKTTVYTIPYESDEEAEARIEEIKAEARARNPEAKVTVTPAGESVNVTIVGSAGGSAGGSA [r18_469_JUSTAS],-2.93 ± 1.42
12,SAGGDWVPIEFTIMVPAEELQEGKPPTAEDIVEELFPPNFNVDIDVQQFPGNGYVYATVKIWVPPGMPSAGG [r13_862_TrROS],9.86 ± 0.795
13,SAGGSMKIVEIKIKRNKNGKLTIEIKVELSEEELEDKEKRKKLIEELAKKLAEELEKKFGIKVEVPSAGGSA [r2_306_TrROS_Hall],13.2 ± 0.372
14,SAGGSAGGSAGPITVPPGAVLLSVEEEGERTRVTVRLPGSGVVETYTFEPGEPVVVELPGSAGGSAGGSAGG [r11_774_JUSTAS],9.49 ± 0.222
15,SAGGSLKDMPVEDLAKYFARKMGYPITDVKVERNPDPPWIKINIEMEHPNDGRRHPHEIWIPKDDISAGGSA [r2_156_TrROS],2.21 ± 0.259
16,SAGGSAGGSAGDKNGKPPPKIEIVPIRMSFRFPELGWWIEIDIYVIKDPAIMISISLYPYSAGGSAGGSAGG [r11_883_TrROS],15.1 ± 0.92
17,SKIEIDEFPWERNPDDGYATIQIKIKVRDPDKKKKDIPHEFPPGSSPDQFWDQIENRAQNNGIKDVEISWSA [r9_1203_TrROS],0.407 ± 0.243
18,SDKVEIWIPIPDGFWVRIKYDKPGKREITIWMPEDNPEFRKHGSMDQFIKHLARKLGLDPDKVKVDMYPMSA [r9_401_TrROS],13.1 ± 0.418
19,SAGMTALFTDSSGKEVTFSHPNLELTVDPETGVVSAYEPESNLKVEVKVAPDKVTVTVYSGSSSKEIPLSAG [r5_786_JUSTAS],-0.946 ± 0.268
20,SAGGSAGGGPPGTTTTTISTPDGPVTVTVSPTSVTVTRPGSNETVTSSGSPTTTLEEIAAEIAASAGGSAGG [r6_317_JUSTAS],12 ± 0.586
21,SAGGGSMIKKTLEEEPVGESTVSKSTVTLPDGTPVSVTSTTTKVGNTWTTTTTTNYGSSTTTTTTTTSAGGS [r16_476_JUSTAS],-2.67 ± 0.879

# Experiment: folding stability dG unfold from chymotrypsin proteolysis; higher = more stable
# Procedure, shortened: as §1
row,Sequence,folding stability dG unfold [kJ/mol]
1,SEEEYLVIEVEFEVENPEEAREFAERLARELPLDEIESLEVEVEPREVFVEGEPVGPVYRFRVRAVVRPRSA [r9_605_TrMRF],12.5 ± 0.201
2,SAGGMKPGEKVLVKITLKKEVFKNENGEEVKVEEKEILIELEVDSLEEALEALKKLLPPGAEIEVLPSAGGS [r16_282_TrROS_Hall],13 ± 0.197
3,SATIEIPIKVNDRKFRISIERMPDGWIKIQIRDPNMPKDAVKDALREILGPGWKIDTDPETNTIYIPFKSAG [r14_370_TrROS],11.59 ± 0.113
4,SAGGSAGGSVVPVKAVFKLPDGDEVEGLALVDNRPDGSLVVLFQLPGTGETVGSATAELLKVEGSAGGSAGG [r6_254_TrMRF],3.04 ± 0.418
5,SKEKVKVEIKLTVTKVFPPEELEKDPKTGKYRNKDTGKWFEPPKVVVKELTLTIEMSKEEVEKLLKELLKSA [r9_165_TrROS_Hall],11 ± 0.201
6,SKKKKTIVIELTKDELKELLKKLKVEEGDEVEIFVRNKDGSIYKLTIKNGKITKIEPFKGVPNKVVIVIKSA [r9_849_TrROS_Hall],14.6 ± 0.285
7,SAGGSAGGSMVEITFPPDLSEEEAEALAKELEEKYNKKVKITKVPPEIPVPLPQYDPTNWVEVSAGGSAGGS [r12_159_JUSTAS],-0.128 ± 0.46
8,SAGGSAGGSAGGTVTFFEENEFVIDVPDPLTGRPIRIEVPGDPNKPEEIEARAEELRLSSAGGSAGGSAGGS [r10_379_JUSTAS],-0.657 ± 0.402
9,SAGDALKDIFPGLEIEPHEKPVKVPPGKPVEFAFIIRMPDGEIMIFDMHFNPGGEVRVRVLTIKLPEKSAGG [r19_125_TrROS],20.1 ± 0.586
10,SAGGSAGGPSPNQPERQQVQVEAKIRFPDPNGKEWTIEITAYGSVGDARDAARSLAREIKNGKISAGGSAGG [r6_944_TrROS],-3.27 ± 2.05
11,SAGGKTITLPNGITITVNEDGTVTVTVTVDGKTLTVTVKVDSLEEALAAILEELRRLLKPPEVTVVKPSAGG [r13_896_TrROS_Hall],14.3 ± 0.544
12,SEVEVTVTVTLTRRLPDGREREVTVTLTLRLEFDPELSEEELESPELRKRLEELRREALERARRLAEELASA [r9_237_TrROS_Hall],27.3 ± 0.92
13,SAGGSAGGSITVEVEVEIVDEVEDPNTQGYRPVRVSRIPITIPVPESWSEEDIEAAVKEAIEKASAGGSAGG [r6_494_JUSTAS],8.89 ± 0.092
14,SAGFSIVEVEPDEDTYTITIEYTLPNGTVKTKDLPLKAKNPVLLEISENEITIYLPDTNEVVTLPVSLISAG [r14_947_JUSTAS],7.27 ± 0.669
15,SAGGMPKLTVTITFEPPDGSTTTTRDFTSVEEAIEALRAVPDIPVEPLEDDVIRARRPDSETTVTIVESAGG [r13_143_JUSTAS],-3.33 ± 1
16,SAGGSAGGSMPKKTYEFEIEYEDPEEAVEKAIREFEEETGEKIEEVEVEYDPEKGIVKITLVKSAGGSAGGS [r12_265_JUSTAS],6.04 ± 0.368
17,SAGGSAGGSDDMIPIPFKIKLKDPNGKPHEFPVTIWINPEDGMIMIRYPNQPIMIDPDKIEIESAGGSAGGS [r20_48_TrROS],4.48 ± 0.795
18,SAGGSAGGGGMMKTITIPLEELKAKLAKETGKPLTIEEIKEALKKEGIKLLSVDKEKGTITISESAGGSAGG [r6_767_JUSTAS],7.23 ± 0.377
19,SGSTHTVRPPGGLTLTFTFSTDGTTEEAAQALKEALAAALPPDVTVTFDRIDPDKPVTPDEAATVDATVVSA [r9_178_JUSTAS],7.06 ± 0.46
20,SAGGEIKPGQTVRIRITVYNLETGEEKTIEVEVPAGKTLEEVLAELFDNLSEEERKNLVVRIEIEPVSAGGS [r16_321_TrROS_Hall],21 ± 0.502
21,SAGGSAGGSAGGMIKTKDGKVLEFKSLEEALAALKELGVDEVEIEELEPEGVVKVKVKPSAGGSAGGSAGGS [r10_1191_TrROS_Hall],5.62 ± 0.163

# Reference: the supplement of paper PMC12764529
